Measurements from publication PMC5758567.

Molecular target: Rod photoreceptor cGMP phosphodiesterase 6 (PDE6) (bovine (endogenous in rod outer segments)) (UniProt P11541)

Prenyl-binding protein (PrBP/δ), sequence (Q95142 whole entry, stated change not applied): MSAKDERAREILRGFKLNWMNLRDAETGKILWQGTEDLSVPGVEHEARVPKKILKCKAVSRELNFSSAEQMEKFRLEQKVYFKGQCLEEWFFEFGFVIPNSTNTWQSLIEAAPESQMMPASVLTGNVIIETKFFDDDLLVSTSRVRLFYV

- Gα*-induced PDE6 activity (50 nM PDE6, 10 µM disc membranes, 1 µM Gα*) against PrBP/δ concentration; fit with two identical PrBP/δ binding sites on soluble PDE6: 0.07 µM
Substance: Prenyl-binding protein (PrBP/δ) (from UniProt Q95142 1-150) (natural protein)
